The target of the experiment is dHtt-eGFP fusion protein (Drosophila Huntingtin with a C-terminal eGFP tag) (Drosophila). Put plainly: affinity purification with mass spectrometry.

The substance “CG8134/dHap40 (Drosophila HAP40), endogenous ~40 kDa protein (from UniProt Q9VXR6 1-345) (natural protein)” came in with a stoichiometry N of 1 molar ratio.

The record behind these values is article doi:10.1101/2020.05.27.119552.
